Consider 5 molecules from article PMC12282945.

What all share (experiment): EMSA
The target in series [1] is T1, Aca11 (Streptococcus sp. F0441).
T1 chain: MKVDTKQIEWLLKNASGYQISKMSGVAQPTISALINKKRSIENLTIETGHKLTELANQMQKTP

In series [2] the target is T1, Aca11.
Another series addresses T2, A35-n-Aca13.
T2 chain: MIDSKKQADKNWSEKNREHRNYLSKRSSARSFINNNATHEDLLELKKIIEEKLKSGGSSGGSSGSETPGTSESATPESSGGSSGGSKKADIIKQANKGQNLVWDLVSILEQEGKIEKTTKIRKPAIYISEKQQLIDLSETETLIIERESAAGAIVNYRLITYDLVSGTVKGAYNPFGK

The target of another series is T3, A35-c-Aca13.
T3 chain: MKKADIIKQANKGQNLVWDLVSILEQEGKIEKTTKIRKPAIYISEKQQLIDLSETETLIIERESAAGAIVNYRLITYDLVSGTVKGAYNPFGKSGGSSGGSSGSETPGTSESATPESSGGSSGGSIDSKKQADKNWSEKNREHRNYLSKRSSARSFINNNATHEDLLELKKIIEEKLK

Series [3] has as its target T4, A32CTD (Aca13) (Streptococcus uberis NZ01).
T4 chain: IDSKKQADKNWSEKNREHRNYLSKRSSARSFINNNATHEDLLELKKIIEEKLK

In series [4] the target is T5, AcrIIA32 (Acr-Aca13 fusion) (Streptococcus uberis NZ01).
T5 chain: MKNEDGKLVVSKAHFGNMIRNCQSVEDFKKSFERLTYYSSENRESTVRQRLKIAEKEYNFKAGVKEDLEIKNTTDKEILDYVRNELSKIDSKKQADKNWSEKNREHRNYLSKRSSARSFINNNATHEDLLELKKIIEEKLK

Series [5] has as its target T4, A32CTD (Aca13).
Series [6] deals with T5, AcrIIA32 (Acr-Aca13 fusion).

Like-named read-outs stand apart in the source and are kept apart here.

B1: Aca11-s1 scIR probe (dsDNA)
DNA 1: GTGTTGACAGGCGCGCCTCAATGTTATATACTATACTTGTAAGATAAATAAAACAA
DNA 2: TTGTTTTATTTATCTTACAAGTATAGTATATAACATTGAGGCGCGCCTGTCAACAC
As for B1, the binding result in the series with Aca11 [1] is on record as “no binding”.

B2: Aca11-s1 IR WT probe (dsDNA)
DNA 1: GTGTTGACAGTATATAACAAATGTTATATACTATACTTGTAAGATAAATAAAACAA
DNA 2: TTGTTTTATTTATCTTACAAGTATAGTATATAACATTTGTTATATACTGTCAACAC
In the case of B2, in the series with Aca11 [2], the binding result is “binds”.

B3: Aca13-s1 WT probe (Aca13 probe) (dsDNA)
DNA 1: AGTTGATAAAAAGTGTTGACTTTTTAACGTACATGTACTATAATATAATCATAAAGAT
DNA 2: ATCTTTATGATTATATTATAGTACATGTACGTTAAAAAGTCAACACTTTTTATCAACT
B3: the binding result (with A35-n-Aca13; with A35-c-Aca13; with A32CTD (Aca13) [3]; in series [4]) was “binds” throughout.

B4: Aca13-s1 scIR1 probe (dsDNA)
DNA 1: AGTTGATCCCCCTAGTTGACTTTTTAACGTACATGTACTATAATATAATCATAAAGAT
DNA 2: ATCTTTATGATTATATTATAGTACATGTACGTTAAAAAGTCAACTAGGGGGATCAACT
Regarding B4, the binding result (with A32CTD (Aca13) [3]; in series [4]) was “binds” throughout.

B5: Aca13-s1 scIR2 probe (dsDNA)
DNA 1: AGTTGATAAAAAGTGTTGACTTTTTAACGTACAGAGCTGTGCATATAATCATAAAGAT
DNA 2: ATCTTTATGATTATATGCACAGCTCTGTACGTTAAAAAGTCAACACTTTTTATCAACT
As for B5, the binding result (with A32CTD (Aca13) [5]; in series [6]) was “no binding” in each case.
